Test results published in article PMC7618261 (Journal of molecular biology, 2019).

Tests used:
[1] = target: Alexa Fluor 488-labeled OmpT (E. coli) (UniProt P09169); test: MST
SurA WT = target: T1, SurA WT (E. coli, UniProt P0ABZ6 21-428); test: MST
T1 sequence (looked up): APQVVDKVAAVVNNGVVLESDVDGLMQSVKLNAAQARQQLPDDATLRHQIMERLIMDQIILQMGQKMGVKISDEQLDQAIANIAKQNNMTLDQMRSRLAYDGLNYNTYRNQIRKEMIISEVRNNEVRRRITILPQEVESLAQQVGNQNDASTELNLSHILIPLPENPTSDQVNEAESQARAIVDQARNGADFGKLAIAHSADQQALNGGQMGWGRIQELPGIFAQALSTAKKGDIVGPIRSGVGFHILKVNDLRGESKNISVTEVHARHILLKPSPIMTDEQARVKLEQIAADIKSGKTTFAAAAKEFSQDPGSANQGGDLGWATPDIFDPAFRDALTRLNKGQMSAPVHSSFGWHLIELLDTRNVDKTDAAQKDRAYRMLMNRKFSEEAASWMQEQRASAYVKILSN

For “SurA WT (from UniProt P0ABZ6 21-428) (natural protein)”, which Kd [1] is on record?
Its Kd is 9.3 µM.

B1: Alexa Fluor 488-labeled tOmpA (domain or fragment)
chain: APKDNTWYTGAKLGWSQYHDTGFINNNGPTHENQLGAGAFGGYQVNPYVGFEMGYDWLGRMPYKGSVENGAYKAQGVQLTAKLGYPITDDLDIYTRLGGMVWRADTKSNVYGKNHDTGVSPVFAGGVEYAITPEIATRLEYQWTNNIGDAHTIGTRPDNGMLSLGVSYRFG
modifications: Alexa Fluor 488 C5 maleimide on the N-terminal Cys
Which Kd (SurA WT) does the source give for B1 here?
Its Kd is 1800 ± 100 nM.
